Experimental data taken from patent publication US20070036810A1, “Cyclic amp response element activator proteins and uses related thereto” (priority 2003, published 2007).
Blank lines part the entries; values can stand above or below the substance they belong to.

Biological target: GAL4-CREB fusion protein (Stratagene): CREB activation domain fused with the yeast GAL4 DNA binding domain (amino acids 1-147) (yeast) (UniProt P04386)
Assay: cell-based or functional assay

Fold Induction (luciferase from the genome-integrated pFR-Luc/UAS-Luc reporter in HLR cells, GAL4-CREB co-transfected with CREAP1, normalized to pCMV-BD vector): 233 fold
Substance: human CREAP1 (CRE activating protein 1), full length (from UniProt Q6UUV9 1-634)

Fold Induction (luciferase from the genome-integrated pFR-Luc/UAS-Luc reporter in HLR cells, GAL4-CREB co-transfected with CREAP2, normalized to pCMV-BD vector): 178 fold
Substance: human CREAP2, full length (from UniProt Q53ET0 1-693)

Fold Induction (luciferase from the genome-integrated pFR-Luc/UAS-Luc reporter in HLR cells, GAL4-CREB co-transfected with CREAP3, normalized to pCMV-BD vector): 448 fold
Substance: human CREAP3, full length (from UniProt Q6UUV7 1-619)
